The numbers were not newly measured in PMC3264399, which cites them from elsewhere.

Among the targets are CD46 (Homo sapiens) (UniProt P15529); ephrin-B3 (Homo sapiens) (UniProt Q15768); ephrin-B2 (Homo sapiens) (UniProt P52799).

Sequence of NiV-G (Q9IH62 whole entry): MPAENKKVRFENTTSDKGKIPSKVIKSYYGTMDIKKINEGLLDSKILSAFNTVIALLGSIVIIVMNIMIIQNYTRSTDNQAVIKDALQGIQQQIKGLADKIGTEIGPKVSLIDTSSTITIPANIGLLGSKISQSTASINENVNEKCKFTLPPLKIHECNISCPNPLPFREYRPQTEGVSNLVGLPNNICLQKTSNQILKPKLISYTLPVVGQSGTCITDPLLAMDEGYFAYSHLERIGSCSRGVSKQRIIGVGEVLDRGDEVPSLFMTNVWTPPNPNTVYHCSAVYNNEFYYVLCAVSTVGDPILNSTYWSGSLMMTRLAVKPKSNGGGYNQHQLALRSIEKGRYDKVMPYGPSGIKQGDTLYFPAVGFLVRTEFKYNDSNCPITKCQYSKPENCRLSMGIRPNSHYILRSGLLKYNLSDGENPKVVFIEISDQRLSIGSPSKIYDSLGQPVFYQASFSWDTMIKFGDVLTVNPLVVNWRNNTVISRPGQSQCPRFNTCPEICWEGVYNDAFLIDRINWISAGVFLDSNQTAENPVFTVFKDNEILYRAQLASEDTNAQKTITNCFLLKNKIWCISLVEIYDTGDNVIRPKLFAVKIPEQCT
Sequence of CD46 (Homo sapiens) (P15529 35-392): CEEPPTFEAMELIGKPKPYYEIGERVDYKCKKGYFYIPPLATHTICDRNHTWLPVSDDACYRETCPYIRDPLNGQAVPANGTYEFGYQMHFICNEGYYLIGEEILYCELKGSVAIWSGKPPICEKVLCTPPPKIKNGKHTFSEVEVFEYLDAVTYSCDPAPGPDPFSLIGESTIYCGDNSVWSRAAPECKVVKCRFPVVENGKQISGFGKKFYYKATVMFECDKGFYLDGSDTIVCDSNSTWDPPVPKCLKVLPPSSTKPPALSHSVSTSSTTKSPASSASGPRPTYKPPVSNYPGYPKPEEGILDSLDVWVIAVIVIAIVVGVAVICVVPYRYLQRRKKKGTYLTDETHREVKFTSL
Sequence of MeV-H (P08362 157-607): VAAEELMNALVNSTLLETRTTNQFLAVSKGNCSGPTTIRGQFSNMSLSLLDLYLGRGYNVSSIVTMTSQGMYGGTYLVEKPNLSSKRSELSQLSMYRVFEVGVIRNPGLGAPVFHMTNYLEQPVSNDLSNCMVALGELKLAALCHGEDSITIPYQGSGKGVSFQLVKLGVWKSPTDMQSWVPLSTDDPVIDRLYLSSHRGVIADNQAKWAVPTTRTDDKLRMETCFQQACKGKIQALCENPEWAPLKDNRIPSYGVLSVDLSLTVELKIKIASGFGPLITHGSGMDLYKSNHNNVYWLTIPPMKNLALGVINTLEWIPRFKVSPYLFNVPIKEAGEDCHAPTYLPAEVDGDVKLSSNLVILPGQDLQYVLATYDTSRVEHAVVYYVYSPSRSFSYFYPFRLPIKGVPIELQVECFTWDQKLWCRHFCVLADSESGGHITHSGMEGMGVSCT
Sequence of ephrin-B3 (Homo sapiens) (Q15768 28-340): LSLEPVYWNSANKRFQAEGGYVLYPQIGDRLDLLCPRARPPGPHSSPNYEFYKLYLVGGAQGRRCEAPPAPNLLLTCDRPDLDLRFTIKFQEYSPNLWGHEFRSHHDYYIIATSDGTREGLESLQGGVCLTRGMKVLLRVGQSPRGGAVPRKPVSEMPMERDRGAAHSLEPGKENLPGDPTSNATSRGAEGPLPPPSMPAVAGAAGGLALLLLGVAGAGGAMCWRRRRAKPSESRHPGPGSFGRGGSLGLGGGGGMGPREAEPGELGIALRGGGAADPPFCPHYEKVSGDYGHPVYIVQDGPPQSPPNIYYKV
Sequence of ephrin-B2 (Homo sapiens) (P52799 28-333): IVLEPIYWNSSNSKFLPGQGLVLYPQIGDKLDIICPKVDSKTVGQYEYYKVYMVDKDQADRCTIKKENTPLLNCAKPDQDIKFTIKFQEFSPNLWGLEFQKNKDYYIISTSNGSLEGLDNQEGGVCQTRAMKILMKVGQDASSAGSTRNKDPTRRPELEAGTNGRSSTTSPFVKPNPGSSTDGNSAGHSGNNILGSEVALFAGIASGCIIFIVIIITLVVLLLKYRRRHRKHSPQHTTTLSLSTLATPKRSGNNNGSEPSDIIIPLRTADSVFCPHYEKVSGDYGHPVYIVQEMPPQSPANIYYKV

Take MeV-H (from UniProt P08362): the Kd (in general, the constant that tells how readily two partners part at equilibrium) in the series with CD46 (Homo sapiens) was 2200 nM.

In the case of NiV-G (from UniProt Q9IH62), the equilibrium dissociation constant (Kd) with ephrin-B3 (Homo sapiens) is 0.58 nM; in the series with ephrin-B2 (Homo sapiens), 0.06 nM.
